# T1: GUCY2C_ECD Peptide 3 (human)
# T1 peptide: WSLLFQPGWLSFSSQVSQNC
# T2: GUCY2C_ECD Peptide 9 (human)
# T2 peptide: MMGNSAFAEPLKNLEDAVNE
# T3: GUCY2C_ECD Peptide 12 (human)
# T3 peptide: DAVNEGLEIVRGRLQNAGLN
# T4: GUCY2C_ECD Peptide 17 (human)
# T4 peptide: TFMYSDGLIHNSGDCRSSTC
# T5: GUCY2C_ECD Peptide 20 (human)
# T5 peptide: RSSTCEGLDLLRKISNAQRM
# T6: GUCY2C_ECD Peptide 26 (human)
# T6 peptide: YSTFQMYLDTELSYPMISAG
# T7: GUCY2C_ECD Peptide 27 (human)
# T7 peptide: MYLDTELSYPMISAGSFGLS
# T8: GUCY2C_ECD Peptide 30 (human)
# T8 peptide: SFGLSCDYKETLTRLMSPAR
# T9: GUCY2C_ECD Peptide 39 (human)
# T9 peptide: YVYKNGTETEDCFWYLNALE
# T10: GUCY2C_ECD Peptide 44 (human)
# T10 peptide: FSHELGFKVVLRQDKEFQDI
# T11: GUCY2C_ECD Peptide 51 (human)
# T11 peptide: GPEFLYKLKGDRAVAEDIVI
# T12: GUCY2C_ECD Peptide 55 (human)
# T12 peptide: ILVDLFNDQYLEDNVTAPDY
# T13: GUCY2C_ECD Peptide 64 (human)
# T13 peptide: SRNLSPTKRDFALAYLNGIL
# T14: GUCY2C_ECD Peptide 75 (human)
# T14 peptide: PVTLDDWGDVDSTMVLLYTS
# T15: GUCY2C_ECD Peptide 76 (human)
# T15 peptide: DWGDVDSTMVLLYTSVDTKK
# T16: GUCY2C_ECD Peptide 83 (human)
# T16 peptide: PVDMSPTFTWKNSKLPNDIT
# T17: Human CD3 epsilon-delta (human)
# T17 construct: Single-chain epsilon-linker-delta with His6; also called huCD3
# T17 chain: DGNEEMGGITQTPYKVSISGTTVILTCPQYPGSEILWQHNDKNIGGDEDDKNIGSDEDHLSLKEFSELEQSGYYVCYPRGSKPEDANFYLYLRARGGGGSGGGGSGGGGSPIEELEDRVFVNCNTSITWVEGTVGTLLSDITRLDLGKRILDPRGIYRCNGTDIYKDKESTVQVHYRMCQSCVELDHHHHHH
# T18: Cynomolgus CD3 epsilon-delta (cynomolgus)
# T18 chain: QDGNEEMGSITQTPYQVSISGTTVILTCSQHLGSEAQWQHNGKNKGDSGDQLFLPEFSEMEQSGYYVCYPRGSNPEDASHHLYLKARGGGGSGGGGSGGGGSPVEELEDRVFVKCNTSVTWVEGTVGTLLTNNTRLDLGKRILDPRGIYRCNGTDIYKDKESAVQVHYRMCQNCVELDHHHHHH
# What was measured:
# GUCY2C_ECD Peptide 3 = target: T1, GUCY2C_ECD Peptide 3; assay: peptide DELFIA ELISA;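 further: epitope mapping using overlapping 20-mer GUCY2C peptides covering residues 1-440, extracellular into transmembrane domain, coated at 20 µg/ml as target antigen and probed with antibodies or GUCY2C-CD3 bispecifics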
# Description: (§1) Arrays were reconstituted with acetonitrile to 100 μg/ml and were then further diluted to 20 μg/ml with sodium carbonate/bicarbonate buffer. Purified antibodies or GUCY2c-CD3 bispecifics were then tested by Delfia ELISA for binding to the different peptides using Delfia ELISA methods previously discussed, with diluted peptides used as the target antigen.
# GUCY2C_ECD Peptide 9 = target: T2, GUCY2C_ECD Peptide 9; assay: peptide DELFIA ELISA;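 further: epitope mapping using overlapping 20-mer GUCY2C peptides covering residues 1-440, extracellular into transmembrane domain, coated at 20 µg/ml as target antigen and probed with antibodies or GUCY2C-CD3 bispecifics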
# Description: as §1
# GUCY2C_ECD Peptide 12 = target: T3, GUCY2C_ECD Peptide 12; assay: peptide DELFIA ELISA;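 further: epitope mapping using overlapping 20-mer GUCY2C peptides covering residues 1-440, extracellular into transmembrane domain, coated at 20 µg/ml as target antigen and probed with antibodies or GUCY2C-CD3 bispecifics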
# Description: as §1
# GUCY2C_ECD Peptide 17 = target: T4, GUCY2C_ECD Peptide 17; assay: peptide DELFIA ELISA;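 further: epitope mapping using overlapping 20-mer GUCY2C peptides covering residues 1-440, extracellular into transmembrane domain, coated at 20 µg/ml as target antigen and probed with antibodies or GUCY2C-CD3 bispecifics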
# Description: as §1
# GUCY2C_ECD Peptide 20 = target: T5, GUCY2C_ECD Peptide 20; assay: peptide DELFIA ELISA
# Description: as §1
# GUCY2C_ECD Peptide 26 = target: T6, GUCY2C_ECD Peptide 26; assay: peptide DELFIA ELISA
# Description: as §1
# GUCY2C_ECD Peptide 27 = target: T7, GUCY2C_ECD Peptide 27; assay: peptide DELFIA ELISA
# Description: as §1
# GUCY2C_ECD Peptide 30 = target: T8, GUCY2C_ECD Peptide 30; assay: peptide DELFIA ELISA
# Description: as §1
# GUCY2C_ECD Peptide 39 = target: T9, GUCY2C_ECD Peptide 39; assay: peptide DELFIA ELISA
# Description: as §1
# GUCY2C_ECD Peptide 44 = target: T10, GUCY2C_ECD Peptide 44; assay: peptide DELFIA ELISA
# Description: as §1
# GUCY2C_ECD Peptide 51 = target: T11, GUCY2C_ECD Peptide 51; assay: peptide DELFIA ELISA
# Description: as §1
# GUCY2C_ECD Peptide 55 = target: T12, GUCY2C_ECD Peptide 55; assay: peptide DELFIA ELISA
# Description: as §1
# GUCY2C_ECD Peptide 64 = target: T13, GUCY2C_ECD Peptide 64; assay: peptide DELFIA ELISA
# Description: as §1
# GUCY2C_ECD Peptide 75 = target: T14, GUCY2C_ECD Peptide 75; assay: peptide DELFIA ELISA
# Description: as §1
# GUCY2C_ECD Peptide 76 = target: T15, GUCY2C_ECD Peptide 76; assay: peptide DELFIA ELISA
# Description: as §1
# GUCY2C_ECD Peptide 83 = target: T16, GUCY2C_ECD Peptide 83; assay: peptide DELFIA ELISA
# Description: as §1
# [1] = target: Human GUCY2c on tumor cells (T84, HT55) (human, UniProt P25092 24-1073); assay: cell-based or functional assay
# Human CD3 epsilon-delta = target: T17, Human CD3 epsilon-delta; assay: SPR, recombinant human CD3
# [2] = target: T18, Cynomolgus CD3 epsilon-delta; assay: SPR, CD3 captured by anti-His, 25 C
# [3] = target: CID1943 (human GUCY2c point mutant) (human); assay: flow cytometry on cells displaying the construct
# Excerpt: (§2) Cells were then washed three times with PBS+0.5% BSA buffer. […] Cells were washed three times with PBS+0.5% BSA buffer and then analyzed on a flow cytometer.
# (§3) MFI (median fluorescence intensity) of anti-GUCY2c antibody binding to the cells was normalized to expression on cell surface measured by MFI of anti-tag antibodies. All the cells expressed V5 and HA on the cell surface for expression normalization.
# [4] = target: CID1949 (human GUCY2c point mutant) (human); assay: flow cytometry on cells displaying the construct
# Excerpt: as §2, §3
# Chain of Human GUCY2c on tumor cells (T84, HT55) (P25092 24-1073 limits assumed): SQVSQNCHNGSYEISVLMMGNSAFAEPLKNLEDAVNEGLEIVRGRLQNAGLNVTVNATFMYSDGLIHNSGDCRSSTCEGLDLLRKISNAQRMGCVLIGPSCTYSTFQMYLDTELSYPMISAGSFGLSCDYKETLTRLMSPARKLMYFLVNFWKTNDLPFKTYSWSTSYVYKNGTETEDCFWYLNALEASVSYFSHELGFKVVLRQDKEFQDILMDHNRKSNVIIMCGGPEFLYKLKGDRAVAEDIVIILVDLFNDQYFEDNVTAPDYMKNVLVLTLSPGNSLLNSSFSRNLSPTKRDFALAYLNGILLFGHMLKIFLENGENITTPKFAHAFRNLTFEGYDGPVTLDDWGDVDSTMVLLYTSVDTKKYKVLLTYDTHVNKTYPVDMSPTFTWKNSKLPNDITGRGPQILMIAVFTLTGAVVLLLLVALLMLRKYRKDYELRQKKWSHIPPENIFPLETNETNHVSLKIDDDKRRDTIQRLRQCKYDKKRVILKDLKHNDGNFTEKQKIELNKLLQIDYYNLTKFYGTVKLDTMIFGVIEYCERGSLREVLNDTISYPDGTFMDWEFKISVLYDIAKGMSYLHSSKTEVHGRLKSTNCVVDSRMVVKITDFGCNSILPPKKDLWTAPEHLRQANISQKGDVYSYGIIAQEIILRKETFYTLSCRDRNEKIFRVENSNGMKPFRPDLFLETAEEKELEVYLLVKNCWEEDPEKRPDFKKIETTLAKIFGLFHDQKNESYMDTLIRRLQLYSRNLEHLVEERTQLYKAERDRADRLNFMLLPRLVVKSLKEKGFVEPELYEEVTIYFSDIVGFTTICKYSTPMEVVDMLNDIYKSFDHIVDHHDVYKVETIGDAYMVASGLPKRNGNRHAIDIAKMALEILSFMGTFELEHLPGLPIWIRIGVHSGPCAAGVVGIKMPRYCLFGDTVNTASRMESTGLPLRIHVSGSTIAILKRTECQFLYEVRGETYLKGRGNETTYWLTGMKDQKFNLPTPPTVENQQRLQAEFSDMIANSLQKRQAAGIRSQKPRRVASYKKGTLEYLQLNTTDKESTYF
binder,measurement,setting,value
"GUCY2C-1608 (bispecific antibody, also called GUCY2c CD3 bispecific) chain 1: DIQLTQSPSSLSASVGDRVTITCRASESVDYYGSSLLQWYQQKPGKAPKLLIYAASKLASGVPSRFSGSGSGTDFTLTISSLQPEDFATYYCQQTRKAYTFGQGTKLEIKGGGSGGGGEVQLVESGGGLVQPGGSLRLSCAASGFTFSDYYMTWVRQAPGKGLEWVAFIRNQARGYTSDHNPSVKGRFTISRDNAKNSLYLQMNSLRAEDTAVYYCARDRPSYYVLDYWGQGTTVTVSSGCPPCPAPEAAGAPSVFLFPPKPKDTLMISRTPEVTCVVVDVSHEDPEVKFNWYVDGVEVHNAKTKPREEQYNSTYRVVSVLTVLHQDWLNGKEYKCKVSNKALPAPIEKTISKAKGQPREPQVCTLPPSREEMTKNQVSLWCLVKGFYPSDIAVEWESNGQPENNYKTTPPVLDSDGSFFLYSKLTVDKSRWQQGNVFSCSVMHEALHNHYTQKSLSLSPG chain 2: DIQMTQSPSSLSASVGDRVTITCTSSQSLFNVRSQKNYLAWYQQKPGKAPKLLIYWASTRESGVPSRFSGSGSGTDFTLTISSLQPEDFATYYCKQSYDLFTFGGGTKVEIKGGGGSGGGGEVQLVESGGGLVQPGGSLRLSCAASGFTFSSYWMHWVRQAPGKGLEWIGEIKPSNELTNVHEKFKDRFTISVDKAKNSAYLQMNSLRAEDTAVYYCTRTITTTEGYWFFDVWGQGTLVTVSSGCPPCPAPEAAGAPSVFLFPPKPKDTLMISRTPEVTCVVVDVSHEDPEVKFNWYVDGVEVHNAKTKPREEQYNSTYRVVSVLTVLHQDWLNGKEYKCKVSNKALPAPIEKTISKAKGQPREPQVYTLPPCREEMTKNQVSLSCAVKGFYPSDIAVEWESNGQPENNYKTTPPVLDSDGSFFLVSKLTVDKSRWQQGNVFSCSVMHEALHNHYTQKSLSLSPG",DELFIA TRF,GUCY2C_ECD Peptide 3,97.8
same,DELFIA TRF,GUCY2C_ECD Peptide 9,145
same,DELFIA TRF,GUCY2C_ECD Peptide 12,259
same,DELFIA TRF,GUCY2C_ECD Peptide 17,112
same,DELFIA TRF,GUCY2C_ECD Peptide 20,3210
same,DELFIA TRF,GUCY2C_ECD Peptide 26,104
same,DELFIA TRF,GUCY2C_ECD Peptide 27,105
same,DELFIA TRF,GUCY2C_ECD Peptide 30,125
same,DELFIA TRF,GUCY2C_ECD Peptide 39,86.5
same,DELFIA TRF,GUCY2C_ECD Peptide 44,90.5
same,DELFIA TRF,GUCY2C_ECD Peptide 51,96.8
same,DELFIA TRF,GUCY2C_ECD Peptide 55,100
same,DELFIA TRF,GUCY2C_ECD Peptide 64,116
same,DELFIA TRF,GUCY2C_ECD Peptide 75,88.2
same,DELFIA TRF,GUCY2C_ECD Peptide 76,102
same,DELFIA TRF,GUCY2C_ECD Peptide 83,85.8
same,"T84 tumor cell EC50 (T cell cytotoxicity, E:T 5:1)",[1],0.19 nM
same,Kd,Human CD3 epsilon-delta,128 nM
same,Kd,[2],24.1 nM
same,koff,[2],0.00916 s⁻¹
same,kon,[2],381000 M⁻¹ s⁻¹
same,binding result,[3],binds
same,binding result,[4],binds

# From patent publication US20230340151A1 (Pfizer, published 2023)
